This note sets out measurements from patent EP4653869A1 (Nantes Université, dated 2025).

Sequences and labels used below:
T1: recombinant human interleukin-34 (IL-34) (human, UniProt Q6ZMJ4 21-242)
T1 construct: Bought recombinant protein; also called hIL34
T1 sequence (looked up): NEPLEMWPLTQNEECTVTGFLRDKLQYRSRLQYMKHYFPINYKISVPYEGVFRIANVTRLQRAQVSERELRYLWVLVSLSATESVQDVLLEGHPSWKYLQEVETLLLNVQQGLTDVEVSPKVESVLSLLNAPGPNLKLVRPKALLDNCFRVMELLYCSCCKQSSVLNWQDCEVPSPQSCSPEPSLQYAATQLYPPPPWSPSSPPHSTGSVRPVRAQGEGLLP

B1: recombinant human bone morphogenetic protein 4 (BMP-4) (ligand, UniProt P12644 293-408, looked up)
chain: SPKHHSQRARKKNKNCRRHSLYVDFSDVGWNDWIVAPPGYQAFYCHGDCPFPLADHLNSTNHAIVQTLVNSVNSSIPKACCVPTELSAISMLYLDEYDKVVLKNYQEMVVEGCGCR
notes: Immobilized on a CM5 chip by amine coupling in the SPR assay
B2: recombinant human bone morphogenetic protein 2 (BMP-2) (ligand, UniProt P12643 283-396, looked up)
chain: QAKHKQRKRLKSSCKRHPLYVDFSDVGWNDWIVAPPGYHAFYCHGECPFPLADHLNSTNHAIVQTLVNSVNSKIPKACCVPTELSAISMLYLDENEKVVLKNYQDMVVEGCGCR
notes: as for B1
B3: recombinant human bone morphogenetic protein 7 (BMP-7) (ligand, UniProt P18075 293-431, looked up)
chain: STGSKQRSQNRSKTPKNQEALRMANVAENSSSDQRQACKKHELYVSFRDLGWQDWIIAPEGYAAYYCEGECAFPLNSYMNATNHAIVQTLVHFINPETVPKPCCAPTQLNAISVLYFDDSSNVILKKYRNMVVRACGCH
notes: as for B1

The assay concerns the target T1, recombinant human interleukin-34 (IL-34). Kind of assay: SPR (Biacore T200), BMP immobilized on CM5 chip, IL-34 as analyte, single cycle titration, bivalent fitting model.
With B1, the Kd worked out at 426 nM; the koff (usually the first-order rate constant of dissociation) came to 0.0467 s⁻¹; the kon – broadly, a measure of how fast the partners come together – was 110000 M⁻¹ s⁻¹.
The like results for B2 were, in that order, 363 nM, 0.0229 s⁻¹ and 63100 M⁻¹ s⁻¹.
The like results for B3 were, in that order, 922 nM, 0.0561 s⁻¹ and 60800 M⁻¹ s⁻¹.
